Experimental data from IntAct's records for PubMed 26449471.

B1: Sestrin-2 (Homo sapiens), P58004 (parent)
chain: MIVADSECRAELKDYLRFAPGGVGDSGPGEEQRESRARRGPRGPSAFIPVEEVLREGAESLEQHLGLEALMSSGRVDNLAVVMGLHPDYFTSFWRLHYLLLHTDGPLASSWRHYIAIMAAARHQCSYLVGSHMAEFLQTGGDPEWLLGLHRAPEKLRKLSEINKLLAHRPWLITKEHIQALLKTGEHTWSLAELIQALVLLTHCHSLSSFVFGCGILPEGDADGSPAPQAPTPPSEQSSPPSRDPLNNSGGFESARDVEALMERMQQLQESLLRDEGTSQEEMESRFELEKSESLLVTPSADILEPSPHPDMLCFVEDPTFGYEDFTRRGAQAPPTFRAQDYTWEDHGYSLIQRLYPEGGQLLDEKFQAAYSLTYNTIAMHSGVDTSVLRRAIWNYIHCVFGIRYDDYDYGEVNQLLERNLKVYIKTVACYPEKTTRRMYNLFWRHFRHSEKVHVNLLLLEARMQAALLYALRAITRYMT
partner: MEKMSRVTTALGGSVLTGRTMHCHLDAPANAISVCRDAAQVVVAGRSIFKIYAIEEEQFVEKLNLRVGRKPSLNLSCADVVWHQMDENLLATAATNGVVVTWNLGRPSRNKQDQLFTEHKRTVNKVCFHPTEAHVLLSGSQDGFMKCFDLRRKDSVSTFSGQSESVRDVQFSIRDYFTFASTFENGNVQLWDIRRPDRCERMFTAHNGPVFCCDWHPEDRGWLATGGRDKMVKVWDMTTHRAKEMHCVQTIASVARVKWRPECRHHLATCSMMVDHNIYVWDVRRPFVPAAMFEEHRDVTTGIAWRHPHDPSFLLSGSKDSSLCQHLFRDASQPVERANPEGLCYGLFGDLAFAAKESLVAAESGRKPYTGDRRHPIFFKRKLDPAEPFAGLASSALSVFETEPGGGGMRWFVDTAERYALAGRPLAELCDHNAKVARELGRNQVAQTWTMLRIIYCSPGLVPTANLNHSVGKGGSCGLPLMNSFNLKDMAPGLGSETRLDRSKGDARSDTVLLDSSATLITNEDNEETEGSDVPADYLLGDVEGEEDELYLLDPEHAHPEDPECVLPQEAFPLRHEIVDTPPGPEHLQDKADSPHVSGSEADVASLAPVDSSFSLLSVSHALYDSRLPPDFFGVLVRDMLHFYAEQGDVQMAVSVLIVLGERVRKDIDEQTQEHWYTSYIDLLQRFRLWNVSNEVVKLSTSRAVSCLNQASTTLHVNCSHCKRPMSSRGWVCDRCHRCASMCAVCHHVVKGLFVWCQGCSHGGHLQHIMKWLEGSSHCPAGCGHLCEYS

Variants of: B1
Settings: with wdr24_human WDR24, Q96S15

| Variant | effect of a mutation on the interaction |
| --- | --- |
| MIVADSECRAELKDYLRFAPGGVGDSGPGEEQRESRARRGPRGPSAFIPVEEVLREGAESLEQHLGLEALMSSGRVDNLAVVMGLHPDYFTSFWRLHYLLLHTDGPLASSWRHYIAIMAAARHQCSYLVGSHMAEFLQTGGDPEWLLGLHRAPEKLRKLSEINKLLAHRPWLITKEHIQALLKTGEHTWWLAELIQALVLLTHCHSLSSFVFGCGILPEGDADGSPAPQAPTPPSEQSSPPSRDPLNNSGGFESARDVEALMERMQQLQESLLRDEGTSQEEMESRFELEKSESLLVTPSADILEPSPHPDMLCFVEDPTFGYEDFTRRGAQAPPTFRAQDYTWEDHGYSLIQRLYPEGGQLLDEKFQAAYSLTYNTIAMHSGVDTSVLRRAIWNYIHCVFGIRYDDYDYGEVNQLLERNLKVYIKTVACYPEKTTRRMYNLFWRHFRHSEKVHVNLLLLEARMQAALLYALRAITRYMT [S190W] | disrupting interaction strength |
